Test results as given in the supplement of paper PMC9170038.

System: MS2 coat protein
Assay: apparent KD of MS2 coat protein; designed switch direction (-1 OFF switch, 1 ON switch): -1; higher = weaker reporter binding
Summary of the method: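 Stalled E. coli RNA polymerase transcribed designed RNA switches on Illumina chips, which were then titrated with SNAP-549-labelled MS2 coat protein, doubling from 0.7 or 1.5 nM to 3 µM. Steps lasted from 0.8–1.5 h at the lowest concentration to 10–20 min at the highest. The apparent KD is each design's median over clusters of curve-fitted normalised fluorescence.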

[1] = Eterna round: R95, input ligand: FMN 200 uM
[2] = Eterna round: R95, input ligand: microRNA oligo, concentration not stated
[3] = Eterna round: R95, input ligand: none
[4] = input ligand: microRNA oligo, concentration not stated

Sequence | apparent KD of MS2 coat protein (input ligand: FMN 200 uM) [µM] | apparent KD of MS2 coat protein (input ligand: none) [µM] | apparent KD of MS2 coat protein [1] [µM] | apparent KD of MS2 coat protein [2] [µM] | apparent KD of MS2 coat protein [3] [µM] | apparent KD of MS2 coat protein [4] [µM]
GAAUAGCAAGCGAGAUCCCACAUGAGGAUCACCCAUGUGCUCGUCUUAUAAAGUACUGUGACGAGAGUCACGGUACA [Mat - Sensor, turn-off var - Eli Mod - D14] (Eterna round: R97, puzzle: Sensor, turn-off variant 1) | 0.0143 | 0.0161 |  |  |  | 
GAAUGCAAGUAAAGAUCUUACAUGAGGAUCACCCAUGUGCUCGUCUUAUAAAGUACUAUCACGAAAGUGAUAGUACA [Mat - Sensor v3 - turn-off var 1 - Eli Mod - D90] (puzzle: Sensor v3, turn-off variant 1) |  |  | 0.0163 | 0.0841 | 0.0174 | 
GAAUUAAUUAAUUAAUAAUACAUGAGGAUCACCCAUGUAGAUCCUACAUACAAGCUAAGUAGCUCGUCUUAUAAUUA [Stov1/2-A2] (Eterna round: R97, puzzle: Sensor, turn-off variant 1) | 0.313 | 0.261 |  |  |  | 
GAAUUCCGAGGAUAUUCGGAACCAGACAUGAGGAUCACCCAUGUGAUGCAGUUUCCGUUCGAAGAAGGUGGAACGC [Eternabot (Original) Solution 28] (Eterna round: R97, puzzle: Exclusion 5) | 0.0225 | 0.0233 |  |  |  | 
GAAUUGUGAGGAUAUUAGUUGUACGUCAAUAGACGUAUAAGUGAGAAGGCACAUGAGGAUCACCCAUGUUCCUG [salish99_ex4_r4_401] (Eterna round: R97, puzzle: Exclusion 4) | 0.0578 | 0.0194 |  |  |  | 
GACAUGAGGAUCACCCAUGUAAGGGAUGAACUUCUGGGUAGCUAGGAUAUGGCUACAAAGGUGGACCAGAAGGAGCGUACCCUU [Amaqura] (Eterna round: R96, puzzle: Exclusion NG 3) | 0.0106 | 0.0286 |  |  |  | 0.0143
GACCACUCAGGAUAUCGGACGGGAAACAUGAGGAUCACCCAUGUGAUGCUGAUAUUCGCACGAGAAGGGAGAAUGA [EX5 B.21] (Eterna round: R97, puzzle: Exclusion 5) | 0.0198 | 0.0188 |  |  |  | 
GACCUCACGGUCAGGAUAUCAGAACGUAAUGCGCAUGAGAAGGGACAUGAGGAUCACCCAUGUGGGCUCGUCGC [Maedvequ] (puzzle: Brourd's mod of Exclusion 4) |  |  |  | 0.0118 |  | 
GACCUGGCGAAGGAUAUCUGGAGGGAGUACAUCAGAGAAGGUCGCACAUGAGGAUCACCCAUGUUUGCAAUAGC [Eternabot (Original) Solution 22] (Eterna round: R97, puzzle: Exclusion 6) | 0.0257 | 0.0216 |  |  |  | 
GACGAAAGAGGAUAUACCGUACGACCCUCGUCAGGGAUCCGACAUGAGGAUCACCCAUGUAGAAGGCUUGCGUC [Eternabot (Original) Solution 25] (Eterna round: R97, puzzle: Exclusion 2) | 0.763 | 0.2 |  |  |  | 
GACGCUGACCGAGGAUAUACAAUAAAACAACAAACUCCUCGUGUCAGAACAUGAGGAUCACCCAUGUAGAAGGCGGCAGGUCUA [Rilebibidi] (Eterna round: R96, puzzle: Exclusion NG 2) | 0.0785 | 0.0581 |  |  |  | 0.0444
GACUAAAUGUGGUUUGGUUACAUGAGGAUCACCCAUGUUGGUCUAAGAACAUGUCUUUUGUACGCUUGUCUUAUAUA [JR_SV3TOV1_Sub067] (puzzle: Sensor v3, turn-off variant 1) |  |  | 0.63 | 0.324 | 0.896 | 
GACUGGACGUGGUCUGGUAACAUGAGGAUCACCCAUGUAGGUCUAAGAACAUGCCUUUUGCACGCUCGUCUUAUAUA [JR_SV3TOV1_Sub064] (puzzle: Sensor v3, turn-off variant 1) |  |  | 0.0333 | 0.0348 | 0.0327 | 
GAGAAAUUAUAGGAUAUCGAAAGUAUAAUUUAACGAGAAGGAUGAACAUGAGGAUCACCCAUGUGGUAUCAUGG [JL-ex6-3.10] (puzzle: Exclusion 6) |  |  | 0.283 | 0.0882 | 0.297 | 
GAGAACUGAGGAUAUACAUGAGGAUCACCCAUGUUGAGAAGAAAGUAUAAAAGAUUGUGUAGAAGGCAGAGAGA [JR_Ex3_Sub069] (Eterna round: R97, puzzle: Exclusion 3) | 0.0523 | 0.0358 |  |  |  | 
GAGAAGGUAGGAUAUACGAAGAAAAAGGGUAGAAGAAGAACACAUGAGGAUCACCCAUGUAGAAGGACCAAGAG [Mat - Exclusion 2 - Mod of my Tesla design - D17] (puzzle: Exclusion 2) |  |  | 0.038 | 0.0215 | 0.0225 | 
GAGGAGCAAGGAUAUACGAGGAUAUGGAAGGUUGGAGAGUGACAUGAGGAUCACCCAUGUAGAAGGUGCAAGGG [JR_Exclu2_Sub096] (puzzle: Exclusion 2) |  |  | 0.0659 | 0.0918 | 0.131 | 

Sequence | apparent KD of MS2 coat protein (input ligand: FMN 200 uM) [µM] | apparent KD of MS2 coat protein (input ligand: none) [µM] | apparent KD of MS2 coat protein [1] [µM] | apparent KD of MS2 coat protein [2] [µM] | apparent KD of MS2 coat protein [3] [µM] | apparent KD of MS2 coat protein [4] [µM]
GAGGAUGUAGGAUAUACUUAGGGUGAGCUCUAAGUGAAUCAACAUGAGGAUCACCCAUGUAGAAGGGCAGGACG [Eternabot (Original) Solution 37] (Eterna round: R97, puzzle: Exclusion 2) | 0.248 | 0.122 |  |  |  | 
GAGGGACAUGAGGAUCACCCAUGUGAGGAUAUGUGAGAAGGAUUGGAGAGAAUAAGAAACAGAAGGCGCUGUAG [JR_Exclu1_Sub088] (puzzle: Exclusion 1) |  |  | 0.107 | 0.0889 | 0.138 | 
GAGUACAGAGGAUAUACAUGAGGAUCACCCAUGUGUUUCAGCUAGGAGACUAGCGAAAGUAGAAGGCUGUACUG [salish99_ex3_r4_006] (Eterna round: R97, puzzle: Exclusion 3) | 0.0234 | 0.0103 |  |  |  | 
GAGUAGGUAGGAUAUACGAUAAUAUAGGGUAGAUAUAUAACACAUGAGGAUCACCCAUGUAGAAGGACCAGGAG [Mat - Exclusion 2 - Mod of my Tesla design - D63] (puzzle: Exclusion 2) |  |  | 0.115 | 0.0383 | 0.0366 | 
GAGUGACAUGAGGAUCACCCAUGUGAGGAUAUCGGCCGGACCUUGUUAGCUUCCACCGCGAGAAGGCACAUCGG [Exclusion 1 V29] (puzzle: Exclusion 1) |  |  |  | 0.0203 |  | 
GAGUGGCAAGGAUAUACAGAGGAGAGGAAGGCAAGAGGUGGACAUGAGGAUCACCCAUGUAGAAGGUGCAGAGG [JR_Exclu2_Sub025] (puzzle: Exclusion 2) |  |  | 0.157 | 0.134 | 0.288 | 
GAUACACAUGAGGAUCACCCAUGUUAGGAUAUUAGCGGGAAAGCUGUCAGACAGUCGAUGAGAAGGAACAGGAG [Excls1-VIII] (puzzle: Exclusion 1) |  |  |  | 0.0293 |  | 
GAUAGAGCAGGAUAUCGAGAUCCGCACAUGAGGAUCACCCAUGUUCGGUCGAAAGACCGACGAGAAGGGCUCUAUC [Omei Ex5 E8] (Eterna round: R97, puzzle: Exclusion 5) | 0.639 | 0.603 |  |  |  | 
GAUAUGCGUGUGAGGAUAUUCGACGCGCAAACGGAGAAGAAGGCACAUGAGGAUCACCCAUGUGGAGGGAAGAA [BmEX4 A.13] (Eterna round: R97, puzzle: Brourd's mod of Exclusion 4) | 0.0828 | 0.0207 |  |  |  | 
GAUCAACAUGAGGAUCACCCAUGUUAGGAUAUGUCCACGUGGCAUAGGACCACGUGUGGCAGAAGGAGCGUUAA [Eternabot (L2) Solution 52] (Eterna round: R97, puzzle: Exclusion 1) | 0.0379 | 0.0374 |  |  |  | 
GAUCAGUCAGGAUAUCAAUCCGCCUGUGAUACGCAGGCGGCUGAGAAGGGACAUGAGGAUCACCCAUGUAAAGA [jl-ex4-4.22 ViennaUCT mod] (Eterna round: R97, puzzle: Exclusion 4) | 0.191 | 0.0804 |  |  |  | 
GAUCAUGCAGGAUAUACAUAAACCAUGAAAACAUGGAUCAAACAUGAGGAUCACCCAUGUAGAAGGGCAUGAUC [Omei Ex2 A20] (Eterna round: R97, puzzle: Exclusion 2) | 0.042 | 0.0241 |  |  |  | 
GAUCAUGCAGGAUAUACAUGGAACAUGAAAACAUGAAUUUCACAUGAGGAUCACCCAUGUAGAAGGGCAUGAUC [Omei Ex2 A12] (Eterna round: R97, puzzle: Exclusion 2) | 0.0542 | 0.579 |  |  |  | 
GAUCCUUUUACGGACGUCUCGAAACAUGAGGAUCACCCAUGUGAGGAUAUCUCCGAAAGGUCGGCAGAGAAGGCACAAUAACAA [MOD2 Eternabot solution 19 score 84.66] (Eterna round: R96, puzzle: Exclusion NG 3) | 0.0294 | 0.0187 |  |  |  | 0.013
GAUCCUUUUACGGACGUCUCGAAACAUGAGGAUCACCCAUGUGAGGAUAUCUCCGAGAGAUCGGCAGAGAAGGCACAAUAACAA [MOD Eternabot solution 19 score 84.66] (Eterna round: R96, puzzle: Exclusion NG 3) | 0.0914 | 0.0503 |  |  |  | 0.0197
GAUCGACAUGAGGAUCACCCAUGUCAGGAUAUCUACAUUGAAGCUGCGGCUUCAAUGUAGAGAAGGGAUAUAAU [E1/16-B1] (Eterna round: R97, puzzle: Exclusion 1) | 0.0369 | 0.0272 |  |  |  | 
